Experimental data from patent US12269859B2, “Synthetic immune receptors and methods of use thereof” (Angeles Therapeutics, Inc., priority 2016, dated 2025).

Test system: target antigen-expressing cell line
Test: Jurkat NFAT-GFP assay, coculture with target cell lines expressing the respective target antigen (summary Table 10A)
Type: cell-based, human
Design: key: The signs +/−, +, 2+ etc. after the name of the cell lines indicate the relative degree of positivity on the Jurkat-NFAT-GFP assay as measured by the % GFP positive cells; +: relative degree of positivity on the Jurkat-NFAT-GFP assay as measured by the % GFP positive cells; 2+: relative degree of positivity on the Jurkat-NFAT-GFP assay as measured by the % GFP positive cells
Details: relative % GFP positive cells; for NFAT-GFP ASSAY Positive Cell lines: RAJI: SIR-expressing Jurkat-NFAT-GFP cells cocultured with RAJI; for NFAT-GFP ASSAY Positive Cell lines: Bv173: SIR-expressing Jurkat-NFAT-GFP cells cocultured with Bv173
Summary of the method: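 Stable SIR expression in Jurkat-NFAT-GFP cells by lentiviral transfer and puromycin selection; coculture with target cells (E:T approximately 1:2) for 4 to 18 hours; flow cytometric measurement of NFAT-driven GFP; scoring as positive when % GFP-positive cells exceeds that of parental reporter cells.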

Molecule	NFAT-GFP ASSAY Positive Cell lines: RAJI	NFAT-GFP ASSAY Positive Cell lines: Bv173	other results
031517-S02 (protein) MALPVTALLLPLALLLHAARPLEGKPIPNPLLGLDSTGSGEDLKNVFPPEVAVFEPSKAEIAHTQKATLVCLATGFYPDHVELSWWVNGKEVHSGVCTDPQPLKEQPALNDSRYCLSSRLRVSATFWQNPRNHFRCQVQFYGLSENDEWTQDRAKPVTQIVSAEAWGRADCGITSASYHQGVLSATILYEILLGKATLYAVLVSALVLMAMVKRKDSRGRAKRSGSGATNFSLLKQAGDVEENPGPTSMALPVTALLLPLALLLHAARPDIVLTQSPASLAVSLGERATINCRASESVSVIGAHLIHWYQQKPGQPPKLLIYLASNLETGVPARFSGSGSGTDFTLTISSLQAEDAAIYYCLQSRIFPRTFGQGTKLEIKGGGGSGGGGSGGGGSQVQLVQSGSELKKPGESVKISCKASGYTFTDYSINWVKQAPGQGLKWMGWINTETREPAYAYDFRGRFVFSLDTSASTAYLQISSLKAEDTAVYFCALDYSYAMDYWGQGTLVTVSSTREQKLISEEDGSGIQNPDPAVYQLRDSKSSDKSVCLFTDFDSQTNVSQSKDSDVYITDKCVLDMRSMDFKSNSAVAWSNKSDFACANAFNNSIIPEDTFFPSSDVPCDVKLVEKSFETDTNLNFQNLSVIGFRILLLKVAGFNLLMTLRLWSSRAKRSGSGVKQTLNFDLLKLAGDVESNPGPSRGHMTEYKPTVRLATRDDVPRAVRTLAAAFADYPATRHTVDPDRHIERVTELQELFLTRVGLDIGKVWVADDGAAVAVWTTPESVEAGAVFAEIGPRMAELSGSRLAAQQQMEGLLAPHRPKEPAWFLATVGVSPDHQGKGLGSAVVLPGVEAAERAGVPAFLETSAPRNLPFYERLGFTVTADVEVPEGPRTWCMTRKPGA			NFAT-GFP ASSAY Positive Cell lines: L363 (SIR-expressing Jurkat-NFAT-GFP cells cocultured with L363): L363 (+/−), U266; NFAT-GFP ASSAY Positive Cell lines: U266 (SIR-expressing Jurkat-NFAT-GFP cells cocultured with U266): (+/−)
090116-G02 (protein, Synthetic Immune Receptor (SIR)) MALPVTALLLPLALLLHAARPLEGKPIPNPLLGLDSTGSGEDLKNVFPPEVAVFEPSKAEIAHTQKATLVCLATGFYPDHVELSWWVNGKEVHSGVCTDPQPLKEQPALNDSRYCLSSRLRVSATFWQNPRNHFRCQVQFYGLSENDEWTQDRAKPVTQIVSAEAWGRADCGITSASYHQGVLSATILYEILLGKATLYAVLVSALVLMAMVKRKDSRGRAKRSGSGATNFSLLKQAGDVEENPGPTSTMALPVTALLLPLALLLHAARPDIVMTQTPLTLSVTIGQPASISCKSSQSLLDSDGKTYLNWLLQRPGQSPERLIYLVSKLDSGVPDRFTGSGSGTDFTLKISRVEAEDLGVYCCWQGTHFPYTFGGGTKVEIKGGGGGSGGGGSGGGGSQVQLQQPGAELVRPGASVKLSCKASGYTFTSYWMNWVKQRPGQGLEWIGMIDPSDSETHYNHIFKDKATLTVDKSSSTAYLQLSSLTSEDSAVYYCARNLYLWGQGTSVTVSSTREQKLISEEDGSGIQNPDPAVYQLRDSKSSDKSVCLFTDFDSQTNVSQSKDSDVYITDKCVLDMRSMDFKSNSAVAWSNKSDFACANAFNNSIIPEDTFFPSSDVPCDVKLVEKSFETDTNLNFQNLSVIGFRILLLKVAGFNLLMTLRLWSSRAKRSGSGVKQTLNFDLLKLAGDVESNPGPSRGHMTEYKPTVRLATRDDVPRAVRTLAAAFADYPATRHTVDPDRHIERVTELQELFLTRVGLDIGKVWVADDGAAVAVWTTPESVEAGAVFAEIGPRMAELSGSRLAAQQQMEGLLAPHRPKEPAWFLATVGVSPDHQGKGLGSAVVLPGVEAAERAGVPAFLETSAPRNLPFYERLGFTVTADVEVPEGPRTWCMTRKPGA	RAJI (+)		
111215-J02 (protein, Synthetic Immune Receptor (SIR)) MDWIWRILFLVGAATGAHSFEVQLVESGGGSVQAGGSLRLSCTTSGRALNMYVMGWFRQAPGNEREFVAATSSSGGSTSYPDSVKGRFTISRDNAKNTVYLQMNSLKPEDTAAYRCAASPYVSTPTMNILEEYRYWGLGTQVTVSSLEGKPIPNPLLGLDSTGSGEDLKNVFPPEVAVFEPSEAEISHTQKATLVCLATGFYPDHVELSWWVNGKEVHSGVCTDPQPLKEQPALNDSRYCLSSRLRVSATFWQNPRNHFRCQVQFYGLSENDEWTQDRAKPVTQIVSAEAWGRADCGFTSESYQQGVLSATILYEILLGKATLYAVLVSALVLMAMVKRKDSRGRAKRSGSGATNFSLLKQAGDVEENPGPTSMDWIWRILFLVGAATGAHSFEVQLVESGGGLVQAGGSLRLSCAASGSIFSGNVMGWYRRQAPGKEREWVAAIASGGSIYYRDSVKGRFTISRDNAKNTVYLQMNSLKPEDTAVYYCNSHPPTLPYWGLGTQVTVSSTREQKLISEEDGSGIQNPDPAVYQLRDSKSSDKSVCLFTDFDSQTNVSQSKDSDVYITDKCVLDMRSMDFKSNSAVAWSNKSDFACANAFNNSIIPEDTFFPSPESSCDVKLVEKSFETDTNLNFQNLSVIGFRILLLKVAGFNLLMTLRLWSSRAKRSGSGVKQTLNFDLLKLAGDVESNPGPSRGHMTEYKPTVRLATRDDVPRAVRTLAAAFADYPATRHTVDPDRHIERVTELQELFLTRVGLDIGKVWVADDGAAVAVWTTPESVEAGAVFAEIGPRMAELSGSRLAAQQQMEGLLAPHRPKEPAWFLATVGVSPDHQGKGLGSAVVLPGVEAAERAGVPAFLETSAPRNLPFYERLGFTVTADVEVPEGPRTWCMTRKPGA		(+)	NFAT-GFP ASSAY Positive Cell lines: MOLM13 (SIR-expressing Jurkat-NFAT-GFP cells cocultured with MOLM13): MOLM13 (+), Bv173
111215-K06 (protein, Synthetic Immune Receptor (SIR)) MDWIWRILFLVGAATGAHSFEVQLVESGGGSVQAGGSLRLSCTTSGRALNMYVMGWFRQAPGNEREFVAATSSSGGSTSYPDSVKGRFTISRDNAKNTVYLQMNSLKPEDTAAYRCAASPYVSTPTMNILEEYRYWGLGTQVTVSSLEGKPIPNPLLGLDSTGSGEDLKNVFPPEVAVFEPSKAEIAHTQKATLVCLATGFYPDHVELSWWVNGKEVHSGVCTDPQPLKEQPALNDSRYCLSSRLRVSATFWQNPRNHFRCQVQFYGLSENDEWTQDRAKPVTQIVSAEAWGRADCGITSASYHQGVLSATILYEILLGKATLYAVLVSALVLMAMVKRKDSRGRAKRSGSGATNFSLLKQAGDVEENPGPTSMDWIWRILFLVGAATGAHSFEVQLVESGGGLVQAGGSLRLSCAASGSIFSGNVMGWYRRQAPGKEREWVAAIASGGSIYYRDSVKGRFTISRDNAKNTVYLQMNSLKPEDTAVYYCNSHPPTLPYWGLGTQVTVSSTREQKLISEEDGSGIQNPDPAVYQLRDSKSSDKSVCLFTDFDSQTNVSQSKDSDVYITDKCVLDMRSMDFKSNSAVAWSNKSDFACANAFNNSIIPEDTFFPSSDVPCDVKLVEKSFETDTNLNFQNLSVIGFRILLLKVAGFNLLMTLRLWSSRAKRSGSGVKQTLNFDLLKLAGDVESNPGPSRGHMTEYKPTVRLATRDDVPRAVRTLAAAFADYPATRHTVDPDRHIERVTELQELFLTRVGLDIGKVWVADDGAAVAVWTTPESVEAGAVFAEIGPRMAELSGSRLAAQQQMEGLLAPHRPKEPAWFLATVGVSPDHQGKGLGSAVVLPGVEAAERAGVPAFLETSAPRNLPFYERLGFTVTADVEVPEGPRTWCMTRKPGA		Bv173 (+), THP1	NFAT-GFP ASSAY Positive Cell lines: THP1 (SIR-expressing Jurkat-NFAT-GFP cells cocultured with THP1): (+),
110116-G04 (protein, Synthetic Immune Receptor (SIR)) MALPVTALLLPLALLLHAARPLEQKLISEEDLGSGDRPDPAVYQLRDSKSSDKSVCLFTDFDSQTNVSQSKDSDVYITDKCVLDMRSMDFKSNSAVAWSNKSDFACANAFNNSIIPEDTFFPSPESSCDVKLVEKSFETDTNLNFQNLSVIGFRILLLKVAGFNLLMTLRLWSSSSRAKRSGSGVKQTLNFDLLKLAGDVESNPGPTSTMALPVTALLLPLALLLHAARPDIVMTQTPLTLSVTIGQPASISCKSSQSLLDSDGKTYLNWLLQRPGQSPERLIYLVSKLDSGVPDRFTGSGSGTDFTLKISRVEAEDLGVYCCWQGTHFPYTFGGGTKVEIKGGGGGSGGGGSGGGGSQVQLQQPGAELVRPGASVKLSCKASGYTFTSYWMNWVKQRPGQGLEWIGMIDPSDSETHYNHIFKDKATLTVDKSSSTAYLQLSSLTSEDSAVYYCARNLYLWGQGTSVTVSSTRGKPIPNPLLGLDSTGSGEDLKNVFPPEVAVFEPSEAEISHTQKATLVCLATGFYPDHVELSWWVNGKEVHSGVCTDPQPLKEQPALNDSRYCLSSRLRVSATFWQNPRNHFRCQVQFYGLSENDEWTQDRAKPVTQIVSAEAWGRADCGFTSESYQQGVLSATILYEILLGKATLYAVLVSALVLMAMVKRKDSRGRAKRSGSGATNFSLLKQAGDVEENPGPSRGHMTEYKPTVRLATRDDVPRAVRTLAAAFADYPATRHTVDPDRHIERVTELQELFLTRVGLDIGKVWVADDGAAVAVWTTPESVEAGAVFAEIGPRMAELSGSRLAAQQQMEGLLAPHRPKEPAWFLATVGVSPDHQGKGLGSAVVLPGVEAAERAGVPAFLETSAPRNLPFYERLGFTVTADVEVPEGPRTWCMTRKPGA	RAJI (+/−)		
